Twelve molecules from patent US20140271457A1 (AbbVie / Abbott, published 2014) can be followed below.

The assay concerns the target Recombinant Human IL-13 (human, UniProt P35225 35-146, limits assumed). The experiment in a line: cell-based or functional assay.

Sequence of Recombinant Human IL-13 (P35225 35-146 limits assumed): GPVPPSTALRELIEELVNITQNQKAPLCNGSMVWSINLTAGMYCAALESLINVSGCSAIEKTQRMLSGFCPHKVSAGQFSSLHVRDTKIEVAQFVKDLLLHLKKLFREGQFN

B1: DVD2789 (bispecific antibody, human IgG1, kappa)
heavy: not shown
light: DIQMTQSPSSLSASVGDRVTISCRASQDIRNYLNWYQQKPGKAPKLLIFYTSKLHSGVPSRFSGSGSGTDYTLTISSLQPEDIATYYCQQGLTPPLTFGGGTKVEIKRTVAAPDIQMTQSPSSLSASVGDRVTITCRASQDISQYLNWYQQKPGKAPKLLIYYTSRLQSGVPSRFSGSGSGTDFTLTISSLQPEDFATYFCQQGNTWPPTFGQGTKLEIKRTVAAPSVFIFPPSDEQLKSGTASVVCLLNNFYPREAKVQWKVDNALQSGNSQESVTEQDSKDSTYSLSSTLTLSKADYEKHKVYACEVTHQGLSSPVTKSFNRGEC
Take B1: the “IL-13 Neutralization Assay IC50” value amounted to 78 pM.

B2: DVD2792 (bispecific antibody, human IgG1, kappa)
heavy: not shown
light: DIQMTQSPSSLSASVGDRVTISCRASQDIRNYLNWYQQKPGKAPKLLIFYTSKLHSGVPSRFSGSGSGTDYTLTISSLQPEDIATYYCQQGLTPPLTFGGGTKVEIKRTVAAPDIQMTQSPSSLSASVGDRVTITCRASQDISQYLNWYQQKPGKAPKLLIYYTSRLQSGVPSRFSGSGSGTDFTLTISSLQPEDFATYFCQQGNTWPPTFGQGTKLEIKRTVAAPSVFIFPPSDEQLKSGTASVVCLLNNFYPREAKVQWKVDNALQSGNSQESVTEQDSKDSTYSLSSTLTLSKADYEKHKVYACEVTHQGLSSPVTKSFNRGEC
In the case of B2, the “IL-13 Neutralization Assay IC50” value is 361 pM.

B3: DVD3014 (bispecific antibody, human IgG1, kappa)
heavy: not shown
light: DIQMTQSPSSLSASVGDRVTISCRASQDIRNYLNWYQQKPGKAPKLLIFYTSKLHSGVPSRFSGSGSGTDYTLTISSLQPEDIATYYCQQGLTPPLTFGGGTKVEIKRTVAAPDIQMTQSPSSLSASVGDRVTITCRASQDIENYLNWYQQKPGKAPKLLIYYTSRLQSGVPSRFSGSGSGTDFTLTISSLQPEDFATYFCQQGNTQPPTFGQGTKLEIKRTVAAPSVFIFPPSDEQLKSGTASVVCLLNNFYPREAKVQWKVDNALQSGNSQESVTEQDSKDSTYSLSSTLTLSKADYEKHKVYACEVTHQGLSSPVTKSFNRGEC
On to B3, for which the “IL-13 Neutralization Assay IC50” value came to 132 pM.

B4: DVD2739 (bispecific antibody, human IgG1, kappa)
heavy: not shown
light: DIQMTQSPSSLSASVGDRVTISCRASQDIRNYLNWYQQKPGKAPKLLIFYTSKLHSGVPSRFSGSGSGTDYTLTISSLQPEDIATYYCQQGLTPPLTFGGGTKVEIKRTVAAPDIQMTQSPSSLSASVGDRVTITCKASQLVSSAVAWYQQKPGKAPKLLIYWASTLHTGVPSRFSGSGSGTDFTLTISSLQPEDFATYYCQQHYRTPFTFGQGTKLEIKRTVAAPSVFIFPPSDEQLKSGTASVVCLLNNFYPREAKVQWKVDNALQSGNSQESVTEQDSKDSTYSLSSTLTLSKADYEKHKVYACEVTHQGLSSPVTKSFNRGEC
On to B4, for which the “IL-13 Neutralization Assay IC50” value turned out to be 132 pM.

B5: DVD2742 (bispecific antibody, human IgG1, kappa)
heavy: not shown
light: DIQMTQSPSSLSASVGDRVTISCRASQDIRNYLNWYQQKPGKAPKLLIFYTSKLHSGVPSRFSGSGSGTDYTLTISSLQPEDIATYYCQQGLTPPLTFGGGTKVEIKRTVAAPDIQMTQSPSSLSASVGDRVTITCKASQLVSSAVAWYQQKPGKAPKLLIYWASTLHTGVPSRFSGSGSGTDFTLTISSLQPEDFATYYCQQHYRTPFTFGQGTKLEIKRTVAAPSVFIFPPSDEQLKSGTASVVCLLNNFYPREAKVQWKVDNALQSGNSQESVTEQDSKDSTYSLSSTLTLSKADYEKHKVYACEVTHQGLSSPVTKSFNRGEC
For B5, the “IL-13 Neutralization Assay IC50” value was 64 pM.

B6: DVD2791 (bispecific antibody, human IgG1, kappa)
heavy: not shown
light: DIQMTQSPSSLSASVGDRVTISCRASQDIRNYLNWYQQKPGKAPKLLIFYTSKLHSGVPSRFSGSGSGTDYTLTISSLQPEDIATYYCQQGLTPPLTFGGGTKVEIKRTVAAPSVFIFPPDIQMTQSPSSLSASVGDRVTITCRASQDISQYLNWYQQKPGKAPKLLIYYTSRLQSGVPSRFSGSGSGTDFTLTISSLQPEDFATYFCQQGNTWPPTFGQGTKLEIKRTVAAPSVFIFPPSDEQLKSGTASVVCLLNNFYPREAKVQWKVDNALQSGNSQESVTEQDSKDSTYSLSSTLTLSKADYEKHKVYACEVTHQGLSSPVTKSFNRGEC
Consider B6, for which the “IL-13 Neutralization Assay IC50” value turned out to be 245 pM.

B7: DVD3016 (bispecific antibody, human IgG1, kappa)
heavy: not shown
light: DIQMTQSPSSLSASVGDRVTISCRASQDIRNYLNWYQQKPGKAPKLLIFYTSKLHSGVPSRFSGSGSGTDYTLTISSLQPEDIATYYCQQGLTPPLTFGGGTKVEIKRTVAAPSVFIFPPDIQMTQSPSSLSASVGDRVTITCRASQDIENYLNWYQQKPGKAPKLLIYYTSRLQSGVPSRFSGSGSGTDFTLTISSLQPEDFATYFCQQGNTQPPTFGQGTKLEIKRTVAAPSVFIFPPSDEQLKSGTASVVCLLNNFYPREAKVQWKVDNALQSGNSQESVTEQDSKDSTYSLSSTLTLSKADYEKHKVYACEVTHQGLSSPVTKSFNRGEC
With B7, the “IL-13 Neutralization Assay IC50” value is 81 pM.

B8: DVD2741 (bispecific antibody, human IgG1, kappa)
heavy: not shown
light: DIQMTQSPSSLSASVGDRVTISCRASQDIRNYLNWYQQKPGKAPKLLIFYTSKLHSGVPSRFSGSGSGTDYTLTISSLQPEDIATYYCQQGLTPPLTFGGGTKVEIKRTVAAPSVFIFPPDIQMTQSPSSLSASVGDRVTITCKASQLVSSAVAWYQQKPGKAPKLLIYWASTLHTGVPSRFSGSGSGTDFTLTISSLQPEDFATYYCQQHYRTPFTFGQGTKLEIKRTVAAPSVFIFPPSDEQLKSGTASVVCLLNNFYPREAKVQWKVDNALQSGNSQESVTEQDSKDSTYSLSSTLTLSKADYEKHKVYACEVTHQGLSSPVTKSFNRGEC
In the case of B8, the “IL-13 Neutralization Assay IC50” value came out at 118 pM.

B9: AB399 (antibody, V domains shown)
VH: EVQLVQSGAEVKKPGASVKVSCKASGYTFTSYWMHWVRQAPGQGLEWIGNINPKGGSNIYNEKFQGRVTMTRDTSISTAYMELSRLRSDDTAVYYCARLDYFGDSFDLWGQGTTVTVSS
VL: DIQMTQSPSSLSASVGDRVTITCRASQGIRNYLNWYQQKPGKAPKLLIYYASNLEVGVPSRFSGSGSGTDYTLTISSLQPEDFATYYCQQDNRFPYTFGGGTKVEIKR
For B9, the “IL-13 Neutralization Assay IC50” value came to 75 pM.

B10: DVD2788 (bispecific antibody, human IgG1, kappa)
heavy: not shown
light: DIQMTQSPSSLSASVGDRVTISCRASQDIRNYLNWYQQKPGKAPKLLIFYTSKLHSGVPSRFSGSGSGTDYTLTISSLQPEDIATYYCQQGLTPPLTFGGGTKVEIKRGGSGGGGSGDIQMTQSPSSLSASVGDRVTITCRASQDISQYLNWYQQKPGKAPKLLIYYTSRLQSGVPSRFSGSGSGTDFTLTISSLQPEDFATYFCQQGNTWPPTFGQGTKLEIKRTVAAPSVFIFPPSDEQLKSGTASVVCLLNNFYPREAKVQWKVDNALQSGNSQESVTEQDSKDSTYSLSSTLTLSKADYEKHKVYACEVTHQGLSSPVTKSFNRGEC
Take B10: the “IL-13 Neutralization Assay IC50” value was 72 pM.

B11: DVD3013 (bispecific antibody, human IgG1, kappa)
heavy: not shown
light: DIQMTQSPSSLSASVGDRVTISCRASQDIRNYLNWYQQKPGKAPKLLIFYTSKLHSGVPSRFSGSGSGTDYTLTISSLQPEDIATYYCQQGLTPPLTFGGGTKVEIKRGGSGGGGSGDIQMTQSPSSLSASVGDRVTITCRASQDIENYLNWYQQKPGKAPKLLIYYTSRLQSGVPSRFSGSGSGTDFTLTISSLQPEDFATYFCQQGNTQPPTFGQGTKLEIKRTVAAPSVFIFPPSDEQLKSGTASVVCLLNNFYPREAKVQWKVDNALQSGNSQESVTEQDSKDSTYSLSSTLTLSKADYEKHKVYACEVTHQGLSSPVTKSFNRGEC
For the molecule B11, the “IL-13 Neutralization Assay IC50” value is 77 pM.

B12: AB398 (antibody, V domains shown)
VH: EVQLVQSGAEVKKPGASVKVSCKASGYTFTTYGVSWVRQAPGQGLEWMGEIYPGNYNTYYNEKFRGRVTMTTDTSTSTAYMELRSLRSDDTAVYYCARWRTSYFSDYGYFDYWGQGTTVTVSS
VL: DVVMTQSPLSLPVTLGQPASISCRSSQSLVHSHGNTYLHWYQQRPGQSPRLLIYTVSNRFSGVPDRFSGSGSGTDFTLKISRVEAEDVGVYYCSQSTHVPYTFGGGTKVEIKR
For B12, the “IL-13 Neutralization Assay IC50” value is 68 pM.
